Among the data in PMC2999918 are stoichiometry N and Ka values, retold here.

Several values for one entry are separate records, joined by “and”; a condition that tells them apart may be missing. Identical values can stand only once.

The stoichiometry N is a count of units in the complex or per binding partner.

For experiment [1], the target named is wild-type (WT) human apolipoprotein A-I, recombinant (human) (UniProt P02647). In words: native gel or EMSA. In general terms: Mobility shift assays separate free from complexed probe on a gel.
The target is the same in experiment [2]. In words: AUC.
Experiment [3] addresses S36A mutant human apolipoprotein A-I, recombinant (human). In words: cross-linking.
Experiment [4] shares this target. In words: AUC.

For the substance “wild-type (WT) human apolipoprotein A-I, recombinant (from UniProt P02647 19-267) (natural protein)”, the stoichiometry N in experiment [1] is 2 and 4. Also, the Ka in experiment [2] was determined as 8.56e+14 M⁻¹.

In the case of “S36A mutant human apolipoprotein A-I, recombinant (natural protein)”, the figures for the stoichiometry N in experiment [3] and in experiment [4] were 2 and 4, respectively. Besides, in experiment [4], the Ka worked out at 6.12e+14 M⁻¹.
